The series has as its target T1, Flag-tagged human PZR (UniProt O95297).
T1 sequence: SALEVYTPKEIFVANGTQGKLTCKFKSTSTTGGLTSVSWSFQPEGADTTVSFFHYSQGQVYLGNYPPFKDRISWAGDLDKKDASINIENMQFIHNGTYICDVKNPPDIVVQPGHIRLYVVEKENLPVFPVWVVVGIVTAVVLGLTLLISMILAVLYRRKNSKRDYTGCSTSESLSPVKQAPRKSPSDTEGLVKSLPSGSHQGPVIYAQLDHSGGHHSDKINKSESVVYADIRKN

This is an account of results in patent publication US20180271864.

In the case of Src recombinant protein, the “in vitro Src kinase assay, immunoblot with anti-pPZR (Y241 or Y263) antibodies” value is listed as “These results implicated c-Src as directly phosphorylating PZR at Shp2 binding sites”.
